Assay results reported in patent US20230414780A1.

Experiments:
[1] = biological target: murine TfR expressed by murine neuroblastoma Neuro-2a cells (mouse) (UniProt Q62351); experiment: cell-based or functional assay
[2] = biological target: murine TfR expressed by murine neuroblastoma Neuro-2a cells (mouse) (UniProt Q62351); experiment: competition with C5-Alexa680 (100 nM) on living Neuro-2a cells, 3 hrs at 37 C, flow cytometry; Ki/app, mean ± SD

Sequence of murine TfR expressed by murine neuroblastoma Neuro-2a cells (mouse) (Q62351 whole entry): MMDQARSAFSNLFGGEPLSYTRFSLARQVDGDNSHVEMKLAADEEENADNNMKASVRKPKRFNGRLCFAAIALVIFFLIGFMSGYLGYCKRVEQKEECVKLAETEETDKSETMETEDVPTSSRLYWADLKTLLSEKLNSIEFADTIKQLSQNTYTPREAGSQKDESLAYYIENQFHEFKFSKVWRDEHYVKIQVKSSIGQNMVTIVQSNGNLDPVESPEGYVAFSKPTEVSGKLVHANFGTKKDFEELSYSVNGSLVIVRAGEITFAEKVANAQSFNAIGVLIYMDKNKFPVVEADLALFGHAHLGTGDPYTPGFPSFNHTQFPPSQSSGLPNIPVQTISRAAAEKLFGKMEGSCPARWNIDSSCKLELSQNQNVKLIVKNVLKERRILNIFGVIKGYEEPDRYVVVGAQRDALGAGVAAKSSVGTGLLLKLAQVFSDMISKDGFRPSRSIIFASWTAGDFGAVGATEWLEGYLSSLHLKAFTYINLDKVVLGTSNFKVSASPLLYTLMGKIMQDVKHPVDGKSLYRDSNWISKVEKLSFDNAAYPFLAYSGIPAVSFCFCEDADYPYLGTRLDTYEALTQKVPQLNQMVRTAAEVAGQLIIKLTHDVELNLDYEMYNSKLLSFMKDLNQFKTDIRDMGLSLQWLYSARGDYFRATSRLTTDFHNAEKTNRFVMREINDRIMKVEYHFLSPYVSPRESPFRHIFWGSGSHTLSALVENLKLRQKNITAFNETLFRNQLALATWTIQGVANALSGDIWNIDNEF

B1: C5-hFc-siSOD1m-5'VP (Fc fusion, part only; not given: Fc knob and hole arms, part only)
chain, part: EVQLVESGGGVVQPGGSLKLSCVASGTDFSINFIRWYRQAPGKQREFVAGFTATGNTNYADSMKGRFTISRDNTKNAVYLQIDSLKPEDTAVYYCYMLDKWGQGTQVTVSS
- IC50 of mSOD1 mRNA downregulation, free uptake on Neuro-2a cells [1]: 8.7 nM
- Ki [2]: 494 nM
